These results are taken from article PMC4598119, “Cancer-Related NEET Proteins Transfer 2Fe-2S Clusters to Anamorsin, a Protein Required for Cytosolic Iron-Sulfur Cluster Biogenesis” (PLoS ONE, 2015).

In test [1] the target is T1, holo-Anamorsin (prepared via cluster transfer from NAF-1), biotinylated (human, UniProt Q6FI81 1-312, biotin).
T1 construct: Anamorsin (CIAPIN-1), human cDNA (Abgent) subcloned into pET28-a(+) between NdeI and XhoI; same chain as m3; also called post-cluster transfer Anamorsin; CIAPIN-1; source: E. coli BL-21 Codon Plus (DE3) RIL, purified; apo form loaded by cluster transfer from NAF-1, then purified from NAF-1 on HiTrap Q anion exchange
T1 sequence (Q6FI81 whole entry): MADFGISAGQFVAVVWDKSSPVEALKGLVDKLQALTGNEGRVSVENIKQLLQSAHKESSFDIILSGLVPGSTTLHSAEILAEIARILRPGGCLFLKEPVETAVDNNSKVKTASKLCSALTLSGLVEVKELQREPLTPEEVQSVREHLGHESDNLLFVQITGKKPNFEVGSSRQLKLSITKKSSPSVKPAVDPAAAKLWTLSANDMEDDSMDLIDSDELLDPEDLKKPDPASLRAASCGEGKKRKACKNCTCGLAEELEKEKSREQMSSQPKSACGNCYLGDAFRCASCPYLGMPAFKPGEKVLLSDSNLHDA
Put plainly: BLI; biotinylated holo-Anamorsin (prepared via cluster transfer) immobilised on streptavidin biosensors; 16 uM holo-NAF-1 or 32 uM holo-mNT; association 900 s, dissociation 1800 s; 2:1 heterogeneous ligand model; average of two trials. Particulars: both partners purified.

The target of test [2] is T2, apo-Anamorsin (cytokine induced apoptosis inhibitor-1), biotinylated (human, UniProt Q6FI81 1-312, biotin (EZ-Link Sulfo-NHS-LC-biotin, 2:1 molar ratio of reagent to protein)).
T2 construct: Anamorsin (CIAPIN-1), human cDNA (Abgent) subcloned into pET28-a(+) between NdeI and XhoI; Without clusters; The vector adds a 6x his-tag and a thrombin cleavage site at the N-terminus; no cleavage is described; also called CIAPIN-1; source: E. coli BL-21 Codon Plus (DE3) RIL, purified (Ni-NTA, HiTrap Q anion exchange); 2Fe-2S cluster removed by the method of Kennedy and Beinert
T2 sequence (Q6FI81 whole entry): as above
Kind of test: BLI; Octet Red96; biotinylated apo-Anamorsin (3.5 uM) immobilised on streptavidin biosensors; holo-NEET in solution; 50 mM bis-tris, 100 mM NaCl, 0.1% Tween 20, 0.5 mg/ml BSA, pH 7.0, without DTT; association 900 s, dissociation 1800 s; 1:1 model. Particulars: both partners purified.

B1: mitoNEET (mNT), soluble domain (residues 33-108), holo (domain or fragment, human, UniProt Q9NZ45 33-108, looked up)
chain: RFYVKDHRNKAMINLHIQKDNPKIVHAFDMEDLGDKAVYCRCWRSKKFPFCDGAHTKHNEETGDNVGPLIIKKKET
notes: mitoNEET (CISD1), human, soluble domain, residues 33-108; Homodimer; each protomer holds one 2Fe-2S cluster (3Cys:1His); at least 98% cluster occupancy; also called holo-mNT; CISD1; source: expressed and purified as described previously [19, 23]
The koff is the first-order rate constant of dissociation. For orientation: kon means the second-order rate constant of association. Consider B1, for which the “fold change of koff against apo-Anamorsin” value in test [1] stood at 50 fold. For the same molecule, in test [2], the koff worked out at 6.17e-05 s⁻¹ and the association rate constant (kon) is 317 M⁻¹ s⁻¹.

B2: nutrient-deprivation autophagy factor-1 (NAF-1), soluble domain (residues 57-135), holo (domain or fragment, human, UniProt Q8N5K1 57-135, looked up)
chain: RPFLPKKKQQKDSLINLKIQKENPKVVNEINIEDLCLTKAAYCRCWRSKTFPACDGSHNKHNELTGDNVGPLILKKKEV
notes: NAF-1 (CISD2), human, soluble domain, residues 57-135; Homodimer; each protomer holds one 2Fe-2S cluster (3Cys:1His); at least 98% cluster occupancy; also called holo-NAF-1; miner1; source: expressed and purified as described previously [19, 23]
With B2, in test [2], the koff was 0.0011 s⁻¹ and the kon is 783 M⁻¹ s⁻¹.
